The source of these data is paper PMC5636754, “Structural and biochemical characterization of DAXX-ATRX interaction” (Protein & Cell, 2017).

The labels stand for the following.
T1: DAXX helical bundle (DHB) domain of death domain-associated protein (DAXX), aa 55-144 (UniProt Q9UER7 55-144)
T1 chain: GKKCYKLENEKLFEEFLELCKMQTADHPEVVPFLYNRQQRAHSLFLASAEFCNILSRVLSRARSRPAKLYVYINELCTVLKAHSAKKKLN

T2: DAXX interaction domain of ATRX (DID_(ATRX)), aa 1,189-1,326 (human, UniProt P46100 1189-1326)
T2 construct: also called full length DID_(ATRX); ATRX_(1,189–1,326)
T2 sequence (looked up): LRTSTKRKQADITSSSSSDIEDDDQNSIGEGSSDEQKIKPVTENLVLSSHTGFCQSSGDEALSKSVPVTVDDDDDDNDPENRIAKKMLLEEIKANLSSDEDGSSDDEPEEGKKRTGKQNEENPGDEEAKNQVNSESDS

B1: ATRX_(1,265–1,285) E1279Q mutant peptide (peptide, UniProt P46100 1265-1285, looked up)
peptide: NDPENRIAKKMLLEQIKANLS
notes: source: synthetic peptide
B2: ATRX_(1,265–1,285) K1273A mutant peptide (peptide, UniProt P46100 1265-1285, looked up)
peptide: NDPENRIAAKMLLEEIKANLS
notes: source: synthetic peptide
B3: ATRX_(1,265–1,285) E1268Q mutant peptide (peptide, UniProt P46100 1265-1285, looked up)
peptide: NDPQNRIAKKMLLEEIKANLS
notes: source: synthetic peptide
B4: ATRX_(1,265–1,285) D1266N mutant peptide (peptide, UniProt P46100 1265-1285, looked up)
peptide: NNPENRIAKKMLLEEIKANLS
notes: source: synthetic peptide
B5: DAXX helical bundle (DHB) domain of death domain-associated protein (DAXX), aa 55-144 (domain or fragment, UniProt Q9UER7 55-144, looked up)
chain: T1 chain
notes: Death domain-associated protein (DAXX), DHB domain, residues 55-144; they may stand in the supplementary file; also called DHB_(DAXX); DBH_(DAXX)
B6: ATRX_(1,244–1,285), 42-residue loop-helix segment of DID_(ATRX) (domain or fragment, human, UniProt P46100 1244-1285, looked up)
chain: SSGDEALSKSVPVTVDDDDDDNDPENRIAKKMLLEEIKANLS
notes: source: co-expressed with DHB_(DAXX) and purified for the crystal
B7: ATRX_(1,265–1,285), α-helix frame only (αDID), wild type peptide (peptide, UniProt P46100 1265-1285, looked up)
peptide: NDPENRIAKKMLLEEIKANLS
notes: the wild type is called 'wild type peptide control'; also called WT
B8: ATRX_(1,265–1,285) I1280A mutant peptide (peptide, UniProt P46100 1265-1285, looked up)
peptide: NDPENRIAKKMLLEEAKANLS
notes: source: synthetic peptide
B9: ATRX_(1,265–1,285) L1277A mutant peptide (peptide, UniProt P46100 1265-1285, looked up)
peptide: NDPENRIAKKMLAEEIKANLS
notes: source: synthetic peptide
B10: ATRX_(1,259–1,285), minimum ATRX motif of 27 residues (peptide, UniProt P46100 1259-1285, looked up)
peptide: DDDDDDNDPENRIAKKMLLEEIKANLS
notes: begins with the polyD loop 1259-DDDDDD-1264

One may read the Kd as the concentration at which binding is half-saturated.

The first assay concerns the target T1, DAXX helical bundle (DHB) domain of …. The assay is described as follows: ITC.
Details: not given
For the molecule B1, binding was put at a Kd of 3.2 µM. In the case of B2, the affinity, expressed as Kd, was 2.3 µM. With B3, the Kd was found to be 5.6 µM. This Kd lies about 2.4-fold higher than the previous one. The same measure, in the same setting: the value for B4 was 7 µM.

Another assay concerns the target T2, DAXX interaction domain of ATRX …. The experiment in a line: ITC; DHB_(DAXX) titrated with ATRX fragments or peptides. As to conditions: both partners purified. For orientation: In ITC the heat of successive injections is recorded.
As for B5, the Kd is 4.5 µM.

Another assay addresses B5. Described as above. To be noted: both partners purified.
Turning to B6, binding was characterised by a dissociation constant (Kd) of 0.07 µM.

As for B7, binding was characterised by a dissociation constant (Kd) of 1 µM. Regarding B1, the binding result is “binds”. In the case of B2, the binding result was “binds”. The molecule B8 showed an equilibrium dissociation constant (Kd) of 10.9 µM. Still for that read-out and setting: the value for B9 was 80.6 µM. Regarding B3, the binding result was “binds”. On to B4, for which the binding result is reported as “binds”. B10 yielded a Kd of 0.07 µM. This lies in the double-digit nanomolar range.
